In publication PMC5753752:

Assays:
GLP-1R-T378SphK = GLP-1R-T378SphK (UniProt P43220)
[1] = biological target: Cy3-labeled GLP-1R-T378SphK (UniProt P43220)
wild-type GLP-1R = wild-type GLP-1R (UniProt P43220)

- GLP-1-induced cAMP accumulation in transfected HEK293T cells, pEC50 (GLP-1R-T378SphK): 10.3
- GLP-1-induced cAMP accumulation in transfected HEK293T cells, pEC50 [1]: 10.4
- GLP-1-induced cAMP accumulation in transfected HEK293T cells, pEC50 (wild-type GLP-1R): 10.7
Substance: GLP-1 peptide
